The values below come from US20240400654A1.

Where a chain is given by its changes, count along the chain named. Names may count otherwise. “And” between values parts separate entries of the source, which are not always exact repeats. Equal entries are not always repeated.

B1: KB001 mouse Fab VH S28L (Fab, V domains shown)
VH: EVQLKQSGPGLVAPSQSLSITCTVSGFLLSIYSVHWVRQPPGKGLEWLGMIWGGGSSDYNSALKSRLSISKDNSKSQVFLKMNSLQTDDTAMYYCARNGNFYAMDYWGQGTSVTVSS
VL: QIVLTQSPAIMSASLGERVTMTCTASSSVSSSFLHWYQQKPGSSPQLWIYSTSNLASGVPARFSGSGSGTSYSLTISSMEAEDAATYYCHQYHHSPYIYTFGGGTKLEIK
B2: KB001 mouse Fab VH S30M (Fab, V domains shown)
VH: B1 VH with L28S, S30M
VL: B1 VL
B3: KB001 mouse Fab VH S28N (Fab, V domains shown)
VH: B1 VH with L28N
VL: B1 VL
B4: KB001 mouse Fab VH I31N (Fab, V domains shown)
VH: B1 VH with L28S, I31N
VL: B1 VL
B5: KB001 mouse Fab VH L29T (Fab, V domains shown)
VH: B1 VH with L28S, L29T
VL: B1 VL
B6: KB001 mouse Fab VH I31Q (Fab, V domains shown)
VH: B1 VH with L28S, I31Q
VL: B1 VL
B7: KB001 mouse Fab VH S30W (Fab, V domains shown)
VH: B1 VH with L28S, S30W
VL: B1 VL
B8: KB001 mouse Fab VH L29V (Fab, V domains shown)
VH: B1 VH with L28S, L29V
VL: B1 VL
B9: KB001 mouse Fab VH S28G (Fab, V domains shown)
VH: B1 VH with L28G
VL: B1 VL
B10: KB001 mouse Fab VH S28A (Fab, V domains shown)
VH: B1 VH with L28A
VL: B1 VL
B11: KB001 mouse Fab VH I31W (Fab, V domains shown)
VH: B1 VH with L28S, I31W
VL: B1 VL
B12: KB001 mouse Fab VH S30T (Fab, V domains shown)
VH: B1 VH with L28S, S30T
VL: B1 VL
B13: KB001 mouse Fab VH Y32S (Fab, V domains shown)
VH: B1 VH with L28S, Y32S
VL: B1 VL
B14: KB001 mouse Fab VH S30Q (Fab, V domains shown)
VH: B1 VH with L28S, S30Q
VL: B1 VL
B15: KB001 mouse Fab VH S30K (Fab, V domains shown)
VH: B1 VH with L28S, S30K
VL: B1 VL
B16: KB001 mouse Fab VH S30R (Fab, V domains shown)
VH: B1 VH with L28S, S30R
VL: B1 VL
B17: KB001 mouse Fab VH S28Y (Fab, V domains shown)
VH: B1 VH with L28Y
VL: B1 VL
B18: KB001 mouse Fab VH I31E (Fab, V domains shown)
VH: B1 VH with L28S, I31E
VL: B1 VL
B19: KB001 mouse Fab VH I31F (Fab, V domains shown)
VH: B1 VH with L28S, I31F
VL: B1 VL
B20: KB001 mouse Fab VH S30F (Fab, V domains shown)
VH: B1 VH with L28S, S30F
VL: B1 VL
B21: KB001 mouse Fab VH S30L (Fab, V domains shown)
VH: B1 VH with L28S, S30L
VL: B1 VL
B22: KB001 mouse Fab VH I31P (Fab, V domains shown)
VH: B1 VH with L28S, I31P
VL: B1 VL
B23: KB001 mouse Fab VH S30H (Fab, V domains shown)
VH: B1 VH with L28S, S30H
VL: B1 VL
B24: KB001 mouse Fab VH I31L (Fab, V domains shown)
VH: B1 VH with L28S, I31L
VL: B1 VL
B25: KB001 mouse Fab VH S28R (Fab, V domains shown)
VH: B1 VH with L28R
VL: B1 VL
B26: KB001 mouse Fab VH L29P (Fab, V domains shown)
VH: B1 VH with L28S, L29P
VL: B1 VL

The target of this assay is HRgpA-6H (Porphyromonas gingivalis) (UniProt P28784). Briefly: ELISA, coated HRgpA-6H.
Chain of UniProt P28784 (P28784 228-860 limits assumed): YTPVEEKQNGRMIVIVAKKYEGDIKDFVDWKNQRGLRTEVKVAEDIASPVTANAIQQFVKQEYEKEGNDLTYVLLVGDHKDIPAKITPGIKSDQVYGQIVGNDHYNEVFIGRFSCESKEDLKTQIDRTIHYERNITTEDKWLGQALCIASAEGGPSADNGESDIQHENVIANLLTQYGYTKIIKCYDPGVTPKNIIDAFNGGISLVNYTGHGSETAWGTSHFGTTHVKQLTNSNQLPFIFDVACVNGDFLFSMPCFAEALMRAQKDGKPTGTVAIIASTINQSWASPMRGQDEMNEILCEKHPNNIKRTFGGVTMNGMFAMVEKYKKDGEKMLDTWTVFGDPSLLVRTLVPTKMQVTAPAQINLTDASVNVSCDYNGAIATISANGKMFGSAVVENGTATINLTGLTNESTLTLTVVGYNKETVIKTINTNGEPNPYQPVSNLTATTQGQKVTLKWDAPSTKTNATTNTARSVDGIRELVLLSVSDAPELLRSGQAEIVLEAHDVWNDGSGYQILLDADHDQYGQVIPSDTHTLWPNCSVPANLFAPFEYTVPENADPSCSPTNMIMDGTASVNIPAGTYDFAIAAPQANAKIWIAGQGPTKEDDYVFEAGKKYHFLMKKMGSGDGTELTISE
For B1, the OD450 nm is 0.435 and 0.468; the Ratio OD(Variant)/OD(WT) was 0.806 and 0.867.
Regarding B2, the OD450 nm stood at 0.437 and the Ratio OD(Variant)/OD(WT) stood at 0.866.
Consider B3, for which the OD450 nm was determined as 0.53 and the Ratio OD(Variant)/OD(WT) is 0.981.
With B4, the OD450 nm was determined as 0.429 and the Ratio OD(Variant)/OD(WT) was determined as 0.85.
Regarding B5, the OD450 nm was 0.502 and 0.512 and 0.501; the Ratio OD(Variant)/OD(WT) was 0.93 and 0.948 and 0.928.
Consider B6, for which the OD450 nm was 0.44 and 0.439; the Ratio OD(Variant)/OD(WT) is 0.872 and 0.87.
In the case of B7, the OD450 nm was determined as 0.469 and the Ratio OD(Variant)/OD(WT) was 0.93.
Take B8: the OD450 nm stood at 0.446 and the Ratio OD(Variant)/OD(WT) stood at 0.826.
With B9, the OD450 nm was 0.468 and 0.486; the Ratio OD(Variant)/OD(WT) was 0.867 and 0.9.
B10: the OD450 nm stood at 0.488 and the Ratio OD(Variant)/OD(WT) is 0.904.
On to B11, for which the OD450 nm turned out to be 0.459 and the Ratio OD(Variant)/OD(WT) worked out at 0.91.
On to B12, for which the OD450 nm was 0.457 and the Ratio OD(Variant)/OD(WT) was 0.906.
Consider B13, for which the OD450 nm is 0.717 and 0.783 and 0.718; the Ratio OD(Variant)/OD(WT) is 0.847 and 0.925 and 0.848.
As for B14, the OD450 nm is 0.47 and 0.483; the Ratio OD(Variant)/OD(WT) was 0.932 and 0.957.
As to B15, the OD450 nm is 0.46 and 0.467 and 0.493; the Ratio OD(Variant)/OD(WT) was 0.912 and 0.926 and 0.977.
For the molecule B16, the OD450 nm came to 0.481 and the Ratio OD(Variant)/OD(WT) stood at 0.953.
Take B17: the OD450 nm amounted to 0.437 and the Ratio OD(Variant)/OD(WT) stood at 0.809.
In the case of B18, the OD450 nm is 0.42 and 0.458 and 0.428; the Ratio OD(Variant)/OD(WT) was 0.833 and 0.908 and 0.848.
As to B19, the OD450 nm was 0.45 and the Ratio OD(Variant)/OD(WT) is 0.892.
As to B20, the OD450 nm was found to be 0.438 and the Ratio OD(Variant)/OD(WT) was 0.868.
As for B21, the OD450 nm came to 0.468 and the Ratio OD(Variant)/OD(WT) was 0.928.
With B22, the OD450 nm is 0.471 and 0.428; the Ratio OD(Variant)/OD(WT) was 0.934 and 0.848.
As for B23, the OD450 nm amounted to 0.482 and the Ratio OD(Variant)/OD(WT) stood at 0.955.
For B24, the OD450 nm is 0.442 and 0.431; the Ratio OD(Variant)/OD(WT) was 0.876 and 0.854.
As for B25, the OD450 nm was determined as 0.458 and the Ratio OD(Variant)/OD(WT) is 0.848.
With B26, the OD450 nm worked out at 0.468 and the Ratio OD(Variant)/OD(WT) amounted to 0.867.
